Source: the supplement of paper PMC9112550, “Optimization of the antimicrobial peptide Bac7 by deep mutational scanning” (BMC Biology, 2022)

Test system: Escherichia coli TOP10
Assay: shrunken log2 fold change of peptide-encoding DNA abundance (4.5 h post-induction vs induction); higher = less antimicrobial activity (less host growth inhibition)
Settings: time post-induction: 4.5 h; library: site-saturation at positions 5, 18, 19, 20
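Note: peptides expressed intracellularly from a pBAD plasmid library in pooled LB shake-flask culture, induced with 0.3% L-arabinose, DNA abundance read by NGS, three biological replicates, DESeq2 with apeglm shrinkage.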

Sequence | shrunken log2 fold change
RRIRERPPRLPRPRPRPYLKPRP | 0.0189
RRIRYRPPRLPRPRPRPTANPRP | -0.602
RRIRFRPPRLPRPRPRPMFTPRP | -0.123
RRIRCRPPRLPRPRPRPTNKPRP | -0.0578
RRIRIRPPRLPRPRPRPYDWPRP | -0.593
RRIRGRPPRLPRPRPRPSVPPRP | 0.215
RRIRPRPPRLPRPRPRPYICPRP | -0.149
RRIRNRPPRLPRPRPRPDGVPRP | 0.221
RRIRMRPPRLPRPRPRPCIDPRP | 0.428
RRIRHRPPRLPRPRPRPIVGPRP | -0.476
RRIRHRPPRLPRPRPRPTKKPRP | -0.0507
RRIRQRPPRLPRPRPRPSCVPRP | -0.478
RRIRYRPPRLPRPRPRPADTPRP | -0.00151
RRIRCRPPRLPRPRPRPTRYPRP | -0.0935
RRIRWRPPRLPRPRPRPILFPRP | -0.456
RRIRDRPPRLPRPRPRPFKKPRP | -0.145
RRIRSRPPRLPRPRPRPTIIPRP | -0.35
RRIRDRPPRLPRPRPRPLEKPRP | 0.0929
RRIRMRPPRLPRPRPRPVYVPRP | -0.161
RRIRYRPPRLPRPRPRPEQKPRP | 0.0039
RRIRIRPPRLPRPRPRPLSSPRP | -0.143
RRIRLRPPRLPRPRPRPRYGPRP | -0.0186
RRIRNRPPRLPRPRPRPARIPRP | -0.0767
RRIRPRPPRLPRPRPRPNQAPRP | -0.0302
RRIRQRPPRLPRPRPRPGRKPRP | 0.249

Sequence | shrunken log2 fold change
RRIRWRPPRLPRPRPRPHSQPRP | 0.0984
RRIRRRPPRLPRPRPRPTRNPRP | 0.853
RRIRKRPPRLPRPRPRPVMIPRP | 0.0956
RRIRGRPPRLPRPRPRPEYHPRP | 0.155
RRIRGRPPRLPRPRPRPQHMPRP | 0.231
RRIRFRPPRLPRPRPRPRTPPRP | 0.534
RRIRPRPPRLPRPRPRPFFPPRP | -0.135
RRIRKRPPRLPRPRPRPIYKPRP | -0.0701
RRIRKRPPRLPRPRPRPGRTPRP | 0.223
RRIRTRPPRLPRPRPRPAGMPRP | 0.0244
RRIRQRPPRLPRPRPRPHEPPRP | -0.00369
RRIRARPPRLPRPRPRPWGFPRP | 0.206
RRIRMRPPRLPRPRPRPRHFPRP | 0.00681
RRIRNRPPRLPRPRPRPLYRPRP | -0.332
RRIRARPPRLPRPRPRPWEEPRP | 0.271
RRIRKRPPRLPRPRPRPCYCPRP | -0.0227
RRIRPRPPRLPRPRPRPIEAPRP | 0.0713
RRIRKRPPRLPRPRPRPNHAPRP | -0.022
RRIRWRPPRLPRPRPRPNYQPRP | -0.365
RRIRQRPPRLPRPRPRPQKMPRP | -0.00813
RRIRHRPPRLPRPRPRPDWRPRP | 0.147
RRIRIRPPRLPRPRPRPYFLPRP | -0.921
RRIRSRPPRLPRPRPRPKPFPRP | -0.646
RRIRCRPPRLPRPRPRPLNWPRP | 0.0486
RRIRDRPPRLPRPRPRPTMTPRP | 0.334

Sequence | shrunken log2 fold change
RRIRHRPPRLPRPRPRPSGSPRP | -0.175
RRIRPRPPRLPRPRPRPLGYPRP | -0.0805
RRIRCRPPRLPRPRPRPVSDPRP | 0.0185
RRIRWRPPRLPRPRPRPDHFPRP | -0.0288
RRIRWRPPRLPRPRPRPIIFPRP | -0.303
RRIRRRPPRLPRPRPRPISMPRP | 0.0655
RRIRRRPPRLPRPRPRPPCWPRP | 0.325
RRIRARPPRLPRPRPRPLFHPRP | -0.249
RRIRGRPPRLPRPRPRPHCDPRP | 3.63
RRIRARPPRLPRPRPRPEASPRP | 1.19
RRIRCRPPRLPRPRPRPRNQPRP | -0.0402
RRIRHRPPRLPRPRPRPHHEPRP | -0.0148
RRIRKRPPRLPRPRPRPYVHPRP | -0.431
RRIRMRPPRLPRPRPRPLMNPRP | -0.263
RRIRSRPPRLPRPRPRPDLKPRP | -0.00372
RRIRYRPPRLPRPRPRPYPPPRP | -0.673
RRIRPRPPRLPRPRPRPMEQPRP | 0.0098
RRIRERPPRLPRPRPRPDNNPRP | -0.237
RRIRFRPPRLPRPRPRPSLMPRP | -0.6
RRIRTRPPRLPRPRPRPVYTPRP | -1.09
RRIRLRPPRLPRPRPRPMTMPRP | 0.024
RRIRCRPPRLPRPRPRPCHAPRP | -0.191
RRIRLRPPRLPRPRPRPVTHPRP | -0.305
RRIRGRPPRLPRPRPRPCFAPRP | 0.789
RRIRDRPPRLPRPRPRPMCEPRP | -0.0122
